Source: paper PMC9482650, “Quantitative fragmentomics allow affinity mapping of interactomes” (Nature Communications, 2022)

T1: TJP3_3, O95049
T1 sequence (O95049 375-456, limits assumed, looked up): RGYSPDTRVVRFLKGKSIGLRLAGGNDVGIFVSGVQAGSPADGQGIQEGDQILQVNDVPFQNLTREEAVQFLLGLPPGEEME

T2: ARHGEF11, O15085
T2 sequence (O15085 42-136, limits assumed, looked up): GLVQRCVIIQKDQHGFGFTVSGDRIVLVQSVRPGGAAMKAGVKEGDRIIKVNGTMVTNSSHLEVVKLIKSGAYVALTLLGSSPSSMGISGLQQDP

T3: APBA1_2, Q02410
T3 sequence (Q02410 742-832, limits assumed, looked up): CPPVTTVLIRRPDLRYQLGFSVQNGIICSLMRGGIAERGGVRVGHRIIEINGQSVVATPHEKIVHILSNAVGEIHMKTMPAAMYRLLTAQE

T4: LRRC7, Q96NW7
T4 sequence (Q96NW7 1440-1537, limits assumed, looked up): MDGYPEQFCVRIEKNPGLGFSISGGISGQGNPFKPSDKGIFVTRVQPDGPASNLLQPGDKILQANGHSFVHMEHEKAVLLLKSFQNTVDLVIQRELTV

T5: ARHGAP21, Q5T5U3
T5 sequence (Q5T5U3 45-169, limits assumed, looked up): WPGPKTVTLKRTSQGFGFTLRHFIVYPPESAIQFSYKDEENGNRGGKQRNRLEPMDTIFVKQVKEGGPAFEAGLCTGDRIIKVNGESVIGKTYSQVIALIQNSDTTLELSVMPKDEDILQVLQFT

T6: LNX2_3, Q8N448
T6 sequence (Q8N448 463-564, limits assumed, looked up): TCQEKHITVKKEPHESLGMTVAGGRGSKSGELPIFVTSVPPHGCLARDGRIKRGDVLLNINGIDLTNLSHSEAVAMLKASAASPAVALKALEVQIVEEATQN

T7: LIN7C, Q9NUP9
T7 sequence (Q9NUP9 88-185, limits assumed, looked up): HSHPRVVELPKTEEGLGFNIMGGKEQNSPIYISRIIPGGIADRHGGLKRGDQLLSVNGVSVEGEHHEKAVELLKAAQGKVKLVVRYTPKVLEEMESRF

T8: SHANK1, Q9Y566
T8 sequence (Q9Y566 658-767, limits assumed, looked up): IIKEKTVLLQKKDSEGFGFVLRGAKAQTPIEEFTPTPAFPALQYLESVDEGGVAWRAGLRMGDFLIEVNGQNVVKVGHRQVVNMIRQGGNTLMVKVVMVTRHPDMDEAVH

T9: APBA1_1, Q02410
T9 sequence (Q02410 651-752, limits assumed, looked up): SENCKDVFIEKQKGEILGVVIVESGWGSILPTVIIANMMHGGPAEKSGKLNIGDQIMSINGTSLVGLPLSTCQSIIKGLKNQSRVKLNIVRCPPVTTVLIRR

T10: RAPGEF6, Q8TEU7
T10 sequence (Q8TEU7 525-625, limits assumed, looked up): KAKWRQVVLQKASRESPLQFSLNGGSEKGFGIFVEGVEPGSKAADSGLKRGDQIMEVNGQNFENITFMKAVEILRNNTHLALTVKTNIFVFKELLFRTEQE

B1: TYRP1, P17643 (peptide)
chain: KLQNPNQSVV
B2: JAM1, Q9Y624 (peptide)
chain: EFKQTSSFLV
B3: CLDN7, O95471 (peptide)
chain: PKSNSSKEYV
B4: KIT, P10721 (peptide)
chain: SQPLLVHDDV
B5: CCL24, O00175 (peptide)
chain: QRYPGNQTTC

Experiments:
Assay in all cases: holdup assay
Parameters in all cases: key: below the threshold = too weak to quantify, mostly under pKd 3.1 to 4
Settings in all cases: plain residues with an end cap or a label only (N-terminal biotin on a linker: ado-ado)
PTPN3, P26045 = target: PTPN3, P26045
PTPN3, P26045, sequence (P26045 505-587): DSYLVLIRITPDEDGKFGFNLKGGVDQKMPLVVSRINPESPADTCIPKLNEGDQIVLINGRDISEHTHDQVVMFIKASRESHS

MAGI2_3, Q86UL8 = target: MAGI2_3, Q86UL8
MAGI2_3, Q86UL8, sequence (Q86UL8 600-682): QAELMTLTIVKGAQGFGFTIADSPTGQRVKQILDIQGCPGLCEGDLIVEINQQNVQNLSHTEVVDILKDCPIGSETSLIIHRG

TJP3_3, O95049 = target: T1, TJP3_3, O95049
NHERF4_2, Q86UT5 = target: NHERF4_2, Q86UT5
NHERF4_2, Q86UT5, sequence (Q86UT5 220-308): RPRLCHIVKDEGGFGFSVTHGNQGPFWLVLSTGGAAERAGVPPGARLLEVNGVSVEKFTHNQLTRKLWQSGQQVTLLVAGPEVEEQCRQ

ARHGEF11, O15085 = target: T2, ARHGEF11, O15085
LDB3, O75112 = target: LDB3, O75112
LDB3, O75112, sequence (O75112 1-94): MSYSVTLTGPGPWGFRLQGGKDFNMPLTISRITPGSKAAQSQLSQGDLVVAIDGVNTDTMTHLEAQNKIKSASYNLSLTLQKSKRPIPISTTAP

NHERF4_1, Q86UT5-2 = target: NHERF4_1, Q86UT5-2
NHERF4_1, Q86UT5-2, sequence (Q86UT5 other isoform, or with tags, fused parts or gaps): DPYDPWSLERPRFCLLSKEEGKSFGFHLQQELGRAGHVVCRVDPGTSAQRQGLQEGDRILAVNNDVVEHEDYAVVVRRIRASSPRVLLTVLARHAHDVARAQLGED

PARD3_3, Q8TEW0 = target: PARD3_3, Q8TEW0
PARD3_3, Q8TEW0, sequence (Q8TEW0 582-685): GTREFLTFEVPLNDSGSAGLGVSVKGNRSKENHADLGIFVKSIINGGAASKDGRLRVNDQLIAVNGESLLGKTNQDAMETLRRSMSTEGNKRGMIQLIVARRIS

APBA1_2, Q02410 = target: T3, APBA1_2, Q02410
FRMPD2_2, Q68DX3 = target: FRMPD2_2, Q68DX3
FRMPD2_2, Q68DX3, sequence (Q68DX3 944-1038): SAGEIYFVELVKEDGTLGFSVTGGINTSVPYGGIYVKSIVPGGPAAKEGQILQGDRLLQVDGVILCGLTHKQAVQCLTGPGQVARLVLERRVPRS

PDLIM1, O00151 = target: PDLIM1, O00151
PDLIM1, O00151, sequence (O00151 1-87): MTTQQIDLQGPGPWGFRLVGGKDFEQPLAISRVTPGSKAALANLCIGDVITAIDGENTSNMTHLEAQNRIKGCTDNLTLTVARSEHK

LRRC7, Q96NW7 = target: T4, LRRC7, Q96NW7
MAGI2_4, Q86UL8 = target: MAGI2_4, Q86UL8
MAGI2_4, Q86UL8, sequence (Q86UL8 772-865): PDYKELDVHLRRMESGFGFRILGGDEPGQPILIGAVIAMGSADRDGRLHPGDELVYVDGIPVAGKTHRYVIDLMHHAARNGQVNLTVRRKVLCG

ARHGAP21, Q5T5U3 = target: T5, ARHGAP21, Q5T5U3
Inadl_4, Q8NI35 = target: Inadl_4, Q8NI35
Inadl_4, Q8NI35, sequence (Q8NI35 547-651): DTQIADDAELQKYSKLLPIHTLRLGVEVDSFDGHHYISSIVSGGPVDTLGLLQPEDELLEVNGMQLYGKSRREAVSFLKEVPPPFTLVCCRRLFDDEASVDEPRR

LNX2_3, Q8N448 = target: T6, LNX2_3, Q8N448
LIN7C, Q9NUP9 = target: T7, LIN7C, Q9NUP9
SCRIB_2, Q14160 = target: SCRIB_2, Q14160
SCRIB_2, Q14160, sequence (Q14160 857-960): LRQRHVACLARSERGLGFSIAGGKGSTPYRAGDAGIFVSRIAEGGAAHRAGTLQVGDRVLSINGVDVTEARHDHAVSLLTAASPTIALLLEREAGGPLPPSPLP

Inadl_2, Q8NI35 = target: Inadl_2, Q8NI35
Inadl_2, Q8NI35, sequence (Q8NI35 238-335): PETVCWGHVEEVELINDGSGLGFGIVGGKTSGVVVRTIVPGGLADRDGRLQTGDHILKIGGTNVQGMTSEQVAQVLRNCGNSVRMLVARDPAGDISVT

GRID2IP_1, A4D2P6 = target: GRID2IP_1, A4D2P6
GRID2IP_1, A4D2P6, sequence (A4D2P6 1-87): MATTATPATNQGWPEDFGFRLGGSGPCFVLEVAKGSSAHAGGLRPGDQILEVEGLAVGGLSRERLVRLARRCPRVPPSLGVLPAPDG

SHANK1, Q9Y566 = target: T8, SHANK1, Q9Y566
APBA1_1, Q02410 = target: T9, APBA1_1, Q02410
Inadl_8, Q8NI35 = target: Inadl_8, Q8NI35
Inadl_8, Q8NI35, sequence (Q8NI35 1425-1530): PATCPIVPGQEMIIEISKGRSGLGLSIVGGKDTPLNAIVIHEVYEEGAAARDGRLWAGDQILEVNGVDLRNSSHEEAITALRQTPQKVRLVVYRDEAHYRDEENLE

DLG4_1, P78352 = target: DLG4_1, P78352
DLG4_1, P78352, sequence (P78352 62-152): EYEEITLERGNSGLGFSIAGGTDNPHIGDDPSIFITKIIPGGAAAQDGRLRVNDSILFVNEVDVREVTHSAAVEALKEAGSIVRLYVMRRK

RAPGEF6, Q8TEU7 = target: T10, RAPGEF6, Q8TEU7
FRMPD2_1, Q68DX3 = target: FRMPD2_1, Q68DX3
FRMPD2_1, Q68DX3, sequence (Q68DX3 770-861): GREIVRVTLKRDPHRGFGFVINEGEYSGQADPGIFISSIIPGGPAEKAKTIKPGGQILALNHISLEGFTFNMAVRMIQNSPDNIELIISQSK

MAGI3_2, Q5TCQ9 = target: MAGI3_2, Q5TCQ9
MAGI3_2, Q5TCQ9, sequence (Q5TCQ9 398-503): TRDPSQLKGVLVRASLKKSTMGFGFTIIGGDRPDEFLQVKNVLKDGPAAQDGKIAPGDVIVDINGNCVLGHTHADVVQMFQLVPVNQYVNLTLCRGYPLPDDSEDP

DLG2_3, Q15700 = target: DLG2_3, Q15700

| pKd (PTPN3, P26045) | pKd (MAGI2_3, Q86UL8) | pKd (TJP3_3, O95049) | pKd (NHERF4_2, Q86UT5) | pKd (ARHGEF11, O15085) | pKd (LDB3, O75112) | pKd (NHERF4_1, Q86UT5-2) | pKd (PARD3_3, Q8TEW0) | pKd (APBA1_2, Q02410) | pKd (FRMPD2_2, Q68DX3) | pKd (PDLIM1, O00151) | pKd (LRRC7, Q96NW7) | pKd (MAGI2_4, Q86UL8) | pKd (ARHGAP21, Q5T5U3) | pKd (Inadl_4, Q8NI35) | pKd (LNX2_3, Q8N448) | pKd (LIN7C, Q9NUP9) | pKd (SCRIB_2, Q14160) | pKd (Inadl_2, Q8NI35) | pKd (GRID2IP_1, A4D2P6) | further results | Binder |
| --- | --- | --- | --- | --- | --- | --- | --- | --- | --- | --- | --- | --- | --- | --- | --- | --- | --- | --- | --- | --- | --- |
| below the threshold | below the threshold | below the threshold | below the threshold | 3.9 | below the threshold | below the threshold | below the threshold | 3.56 | below the threshold | below the threshold | below the threshold | 3.63 | 3.98 | below the threshold | below the threshold | below the threshold | below the threshold | below the threshold | below the threshold | pKd (SHANK1, Q9Y566): below the threshold; pKd (APBA1_1, Q02410): below the threshold; pKd (Inadl_8, Q8NI35): 3.97; pKd (DLG4_1, P78352): 3.91; pKd (RAPGEF6, Q8TEU7): below the threshold; pKd (FRMPD2_1, Q68DX3): below the threshold; pKd (MAGI3_2, Q5TCQ9): 4.46; pKd (DLG2_3, Q15700): below the threshold | B1 |
| below the threshold | 3.54 | below the threshold | below the threshold | below the threshold | below the threshold | 3.84 | 3.75 | 3.5 | below the threshold | below the threshold | below the threshold | 4.3 | below the threshold | below the threshold | below the threshold | below the threshold | below the threshold | 3.56 | below the threshold | pKd (SHANK1, Q9Y566): below the threshold; pKd (APBA1_1, Q02410): below the threshold; pKd (Inadl_8, Q8NI35): below the threshold; pKd (DLG4_1, P78352): below the threshold; pKd (RAPGEF6, Q8TEU7): below the threshold; pKd (FRMPD2_1, Q68DX3): 3.75; pKd (MAGI3_2, Q5TCQ9): below the threshold; pKd (DLG2_3, Q15700): 3.63 | B2 |
| below the threshold | below the threshold | below the threshold | below the threshold | below the threshold | below the threshold | below the threshold | below the threshold | 3.69 | below the threshold | below the threshold | below the threshold | below the threshold | below the threshold | below the threshold | below the threshold | 4.06 | below the threshold | below the threshold | below the threshold | pKd (SHANK1, Q9Y566): below the threshold; pKd (APBA1_1, Q02410): below the threshold; pKd (Inadl_8, Q8NI35): below the threshold; pKd (DLG4_1, P78352): below the threshold; pKd (RAPGEF6, Q8TEU7): below the threshold; pKd (FRMPD2_1, Q68DX3): below the threshold; pKd (MAGI3_2, Q5TCQ9): below the threshold; pKd (DLG2_3, Q15700): below the threshold | B3 |
| below the threshold | below the threshold | below the threshold | below the threshold | below the threshold | below the threshold | below the threshold | below the threshold | 3.54 | below the threshold | below the threshold | below the threshold | below the threshold | below the threshold | below the threshold | below the threshold | below the threshold | below the threshold | below the threshold | below the threshold | pKd (SHANK1, Q9Y566): below the threshold; pKd (APBA1_1, Q02410): below the threshold; pKd (Inadl_8, Q8NI35): 4.94; pKd (DLG4_1, P78352): below the threshold; pKd (RAPGEF6, Q8TEU7): below the threshold; pKd (FRMPD2_1, Q68DX3): below the threshold; pKd (MAGI3_2, Q5TCQ9): below the threshold; pKd (DLG2_3, Q15700): below the threshold | B4 |
| 3.66 | below the threshold | below the threshold | below the threshold | below the threshold | below the threshold | below the threshold | below the threshold | below the threshold | below the threshold | below the threshold | below the threshold | below the threshold | below the threshold | below the threshold | below the threshold | below the threshold | below the threshold | below the threshold | below the threshold | pKd (SHANK1, Q9Y566): below the threshold; pKd (APBA1_1, Q02410): below the threshold; pKd (Inadl_8, Q8NI35): below the threshold; pKd (DLG4_1, P78352): below the threshold; pKd (RAPGEF6, Q8TEU7): 3.58; pKd (FRMPD2_1, Q68DX3): below the threshold; pKd (MAGI3_2, Q5TCQ9): below the threshold; pKd (DLG2_3, Q15700): 3.87 | B5 |
